One series has as its target Homer1b (rat). The experiment in a line: AUC.
The target in the next series is Shank1CΔPEST. The experiment in a line: co-sedimentation.
The target in series [1] is Homer1b I332R/I337E (rat). The series is described as follows: AUC.
For another series, the target named is Homer1bΔ329 (rat). The series is described as follows: AUC.
The series “crystal structure” concerns the molecule itself. The series is described as follows: crystal structure.

For orientation: stoichiometry N means the number of molecules, sites or subunits per partner or assembly. Regarding Homer1b (natural protein), the stoichiometry N in the series with Homer1b (rat) stood at 4.2 mer. In addition, in the series with Shank1CΔPEST, the percent precipitated worked out at 50% and the stoichiometry N (Homer:Shank molar ratio) came to 1.
With Homer1b I332R/I337E (natural protein), the stoichiometry N in series [1] worked out at 2 mer.
Take Homer1bΔ329 (domain or fragment): the stoichiometry N with Homer1bΔ329 (rat) worked out at 2.1 mer.

B1: Homer3CC2 (287 – carboxy-terminus of Homer3a) (domain or fragment, human, UniProt Q9NSC5 287-361, looked up)
chain: AAEREETQQKVQDLETRNAELEHQLRAMERSLEEARAERERARAEVGRAAQLLDVSLFELSELREGLARLAEAAP
Turning to B1, in the series “crystal structure”, the binding result is “binds”.

The values above are taken from PMC2680917 (Cell, 2009).
